Data: the RNAGym collection of RNA variant scans (doi:10.7554/elife.80360)

B1: HDV Ribozyme (parent)
chain: GGCCGGCAUGGUCCCAGCCUCCUCGCUGGCGCCGGCUGGGCAACAUUCCGAGGGGACCGUCCCCUCGGUAAUGGCGAAUGGGACCCA

Variants of: B1
Assay: self-cleavage, relative activity (ratio to wild type); higher = more cleavage; co-transcriptional

Variant | self-cleavage
U37C G82U | 0.399
U37C G82C | 0.268
U37C G82A | 0.173
G39C A71C | 0.0978
C36U G38A | 0.191
U37A A45C | 0.0707
U37A A45U | 0.175
C36G U47C | 0.128
C36U C41G | 0.45
C36U C41A | 0.683
G38A U65G | 0.181
G38A U65C | 0.117
U37C U69C | 0.89
U37C U65G | 0.906
G38U C86G | 0.0573
G38C C57A | 0.102
G38A C63U | 0.0923
G39A A71U | 0.383
G38U C48G | 0.156
U37G C61A | 0.0875
U37G C61G | 0
U37C G76U | 1.3
C36U C57G | 0.79
G39C C49G | 0.219

Variant | self-cleavage
U37A C44U | 0.0386
U37A C44A | 0.364
U37A G74C | 0.212
G38A C44G | 0.0449
G39A G81A | 0.0898
C36U G50A | 0.673
C36U G50C | 0.612
G39C G53U | 0.133
G39C G53C | 0
U37C A42U | 0.295
G38A G53A | 0.113
U37A A43U | 0.0437
U37A A43C | 0.0723
U37A A43G | 0.0554
G39C G40A | 0.695
C36U G54C | 0.872
U37C A87U | 1.14
G39A U60G | 0.404
U37C C49G | 1.21
U37G U65A | 0.101
G39C A45G | 0.0923
U37C C57G | 1.1
G38U A51G | 0.32
G38U A51C | 0.246

Variant | self-cleavage
C36G G50U | 0.101
G39A G67U | 0.351
U37C G39A | 0.0997
U37C G39C | 0.177
C36U C48A | 0.623
C36G C85G | 0.161
C36G C85A | 0.251
G38A G39U | 0.0665
C36G G38A | 0.143
C36U U46G | 0.504
U37G G76A | 0.185
G39A U72G | 0.102
G38C G53A | 0.313
G38C G53C | 0.295
G39A G76A | 0.421
U37G G74A | 0.229
U37G G53C | 0.145
U37G C62G | 0.0791
G38A C85U | 0.128
G38A C85A | 0.104
C36U G76A | 0.697
U37G G59U | 0.256
U37G G59A | 0
G38C G50U | 0.157

Variant | self-cleavage
G38C G50A | 0.188
G38C A43C | 0.26
C36G G76A | 0.162
C36G G76U | 0.277
C36U G59C | 0.923
U37A G59U | 0.181
G39A G82U | 0.0536
U37C C41G | 1.11
U37A U72G | 0.302
C36G U65G | 0.244
C36U C49G | 0.607
C36U C49U | 0.743
C36G G52A | 0.271
G39A G80C | 0.145
G38C U47C | 0.161
U37G A56G | 0.0665
G38A C61G | 0.138
G38A C66A | 0.0992
C36U U69C | 0.801
G38A U69C | 0.31
G38A C49U | 0.119
G39A U65G | 0.264
G38C U65G | 0.142
G38C U65C | 0.391

Variant | self-cleavage
G38C A71G | 0.166
G38C A71U | 0.0449
G39C G59C | 0.162
G39C G59A | 0.23
C36G U46C | 0
G39A C62A | 0.554
G39A C62G | 0.129
G39C A42C | 0.244
C36U U37G | 0.166
C36U U37A | 0.0978
G38A C62G | 0.298
G38A C62U | 0.153
U37C U79C | 0.193
U37A G50A | 0.0361
C36U G68U | 0.786
G38U A45U | 0.158
G38U A45G | 0.0426
U37A U47C | 0.289
C36G U37G | 0.213
C36G G54C | 0.243
C36G G54A | 0.0831
U37A C84U | 0.116
G39C C64A | 0.0369
U37C A70C | 1.04

Variant | self-cleavage
U37A C64A | 0.0723
C36U A56U | 0.845
G38A U46C | 0.138
G38U A43G | 0.208
C36G U60G | 0.0723
G38U G39U | 0.0573
C36U G73U | 0.0692
C36U G73A | 0.428
U37C C86G | 0.956
U37C C86U | 1.06
G39A G74U | 0.176
G38U A71C | 0.225
G39C C48A | 0.125
U37A A51U | 0
C36G G67C | 0.148
G39A G53U | 0.504
G38U G59A | 0.181
G38U G59C | 0.264
G38C C41U | 1.08
G38C C41A | 0.612
G38A C84U | 0.109
G38A C84G | 0.257
U37A U65A | 0.122
G38C C61G | 0.219

Variant | self-cleavage
G38C C61A | 0.218
G38C G52A | 0.322
U37A U79A | 0.246
G38C U72C | 0.341
C36U C64G | 0.606
C36U G80A | 0.0923
C36U G80C | 0.12
C36U A71U | 0.471
U37C G80C | 0.288
U37C G80A | 0.267
U37C U47A | 0.864
G38C C85U | 0.185
G38A A83G | 0.142
G38A A83C | 0.151
G38U C61G | 0.086
G39A A45G | 0.629
U37G C48G | 0.111
C36U C66G | 0.767
C36U G39C | 0.119
C36U G55U | 0.8
U37C | 1.03
U37G | 0.131
U37A | 0.216
